Holding throughout (test): cryo-EM structure
The target in series [1] is dihydrolipoyl transacetylase (E2) (porcine (endogenous in porcine heart mitochondria)).
Series [2] concerns the molecule itself.
For series [3], the target named is dihydrolipoamide dehydrogenase-binding protein (E3BP) (porcine (endogenous in porcine heart mitochondria)).

The stoichiometry N is a count of units in the complex or per binding partner. For the molecule “dihydrolipoyl transacetylase (E2) (enzyme)”, the stoichiometry N in series [1] amounted to 60.

Turning to “pyruvate dehydrogenase (E1) α2β2 heterotetramer (from UniProt P29804 31-390) (complex)”, in series [1], the N, LD per E1 heterotetramer was found to be 1; the N, PSBD per E1 heterotetramer turned out to be 1; the percent of E1 heterotetramers with additional density (LD) came to 82%; the ratio of E1 with LD bound to E1 without LD bound came to 4.5 times.

B1: dihydrolipoyl dehydrogenase (E3) dimer (enzyme, UniProt P09623 36-509, looked up)
chain: ADQPIDADVTVIGSGPGGYVAAIKAAQLGFKTVCIEKNETLGGTCLNVGCIPSKALLNNSHYYHMAHGKDFASRGIEMSEVRLNLEKMMEQKSNAVKALTGGIAHLFKQNKVVRVNGYGKITGKNQVTATKADGSTEVINTKNILIATGSEVTPFPGITIDEDTVVSSTGALSLKKVPEKMVVIGAGVIGVELGSVWQRLGADVTAVELLGHVGGIGIDMEVSKNFQRILQKQGFKFKLNTKVIGATKKSDGNIDVSIEAASGGKAEVITCDVLLVCIGRRPFTQNLGLEELGIELDPRGRIPVNTRFQTKIPNIYAIGDVVAGPMLAHKAEDEGIICVEGMAGGAVHIDYNCVPSVIYTHPEVAWVGKSEEQLKEEGIEYKVGKFPFAANSRAKTNADTDGMVKILGQKSTDRVLGAHIIGPGAGEMINEAALALEYGASCEDIARVCHAHPTLSEAFREANLAASFGKAINF
On to B1, for which the “stoichiometry N” value in series [2] came to 2; in series [3], 1.

(Values after publication doi:10.1101/2024.02.01.578502 (bioRxiv, 2024).)
